{"source": "paper PMC9342783", "key": {"[1]": {"molecular_target": "membrane translocated mature FopA (Francisella tularensis outer membrane protein A) with C-terminal octa-histidine tag (F. tularensis subsp. tularensis strain SCHU S4)", "assay": "native gel or EMSA"}, "[2]": {"molecular_target": "membrane translocated mature FopA (Francisella tularensis outer membrane protein A) with C-terminal octa-histidine tag (F. tularensis subsp. tularensis strain SCHU S4)", "assay": "small angle X-ray scattering (SEC-SAXS)"}}, "data": [{"substance": "membrane translocated mature FopA (Francisella tularensis outer membrane protein A) with C-terminal octa-histidine tag (natural protein)", "values": [{"measurement": "stoichiometry N", "setting": "[1]", "result": 2}, {"measurement": "stoichiometry N", "setting": "[2]", "result": 2}]}]}
